Ends that are not written are not given here. * marks the point of attachment. Pyruvoyl = CC(=O)C(=O)*
T1: His6-ElxO (Staphylococcus epidermidis 15X154) (UniProt I6ZQW6)
T1 sequence: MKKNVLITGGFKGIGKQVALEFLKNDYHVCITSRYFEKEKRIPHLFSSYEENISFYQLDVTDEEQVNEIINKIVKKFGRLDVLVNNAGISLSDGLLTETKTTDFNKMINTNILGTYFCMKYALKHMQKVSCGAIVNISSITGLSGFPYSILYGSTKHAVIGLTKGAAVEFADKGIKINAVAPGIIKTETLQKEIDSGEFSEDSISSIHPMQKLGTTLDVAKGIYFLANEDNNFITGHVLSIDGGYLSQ


Target: T1, His6-ElxO (Staphylococcus epidermidis 15X154)

| Molecule | kcat/Km of reduction by His6-ElxO with NADPH (absorbance at 340 nm) |
| --- | --- |
| Pyr-A (peptide) | < 0.03 M⁻¹ s⁻¹ |
| Pyr-AA (peptide) | < 0.03 M⁻¹ s⁻¹ |
| Pyr-AAI (peptide) | 0.06 M⁻¹ s⁻¹ |
| Pyr-AAIVKBBIKAAKK (peptide) | 14.2 M⁻¹ s⁻¹ |
| Pyruvoyl-AAIVK [Pyr-AAIVK] | 2.43 M⁻¹ s⁻¹ |
| Pyruvoyl-AAIV [Pyr-AAIV] | 1.13 M⁻¹ s⁻¹ |
